Data taken from patent US9868768B2, “Hydrophobic modified pres-derived peptides of hepatitis B virus (HBV) and their use as vehicles for the specific delivery of compounds to the liver” (RUPRECHT-KARLS-UNIVERSITAT HEIDELBERG, priority 2008, dated 2018).
“Also recorded” adds a separate entry of the source.

Assays:
[1] = Biodistribution of 131I-labelled peptides after subcutaneous injection in NMRI mice; assay type: in vivo, male NMRI mice; settings: 2.25 μg 131I-labeled peptide s.c., 10 min, 1 h, 4 h and 24 h post injection
Procedure: Per time point 2.25 μg of ^131I-labeled HBVpreS/2-48^myr(D) were subcutaneously injected into NMRI mice (N=3). 10 min, 1 h, 4 h and 24 h post injection animals were sacrificed and the organ-specific (blood, lung, heart, spleen, liver, kidney and muscle) peptide accumulations (% ID/g) were determined.
The biodistribution of the hydrophobic modified preS-derived peptides was studied in male NMRI mice. All experiments were performed in compliance with German laws. The peptides, containing an additional Tyr-residue at the C-terminal end were labelled with ^131I (Amersham Biosciences, Freiburg, Germany) by the chloramine-T method and purified by HPLC. The labelled peptides were subcutaneously administered by injection of a solution in 50% DMSO. At selected times mice were sacrificed and the radioactivity contained in the blood, heart, lung, spleen, liver, kidney, muscle and brain was measured in a γ-counter (Canberra Packard, Rüsselsheim, Germany) and expressed as a percentage of injected dose per gram of tissue (% ID/g).

[2] = Biodistribution after subcutaneous application in uPA+/−/RAG-2−/−Pfp−/− mice; assay type: in vivo; settings: 2.25 μg 131I-labeled peptide s.c., 10 min to 24 h
[3] = Stability assessment of peptide after extraction from the liver (reversed phase HPLC); assay type: in vivo, uPA+/−/RAG-2−/−Pfp−/− mice; settings: liver extracts 24 h post subcutaneous injection, 131I-labelled
Procedure: Per animal approximately 2.25 μg of the ^131I-labelled peptides were subcutaneously injected. At the indicated time points animals were sacrificed and the liver specific peptide accumulation (% ID/g) was determined. (B) Reversed phase HPLC of pure ^131I-labelled HBVpreS/2-48^myr(D) (brown curve) in comparison to liver extracts (orange curve) obtained 24 h post subcutaneous injection into uPA+/−/RAG-2−/−Pfp−/− mice of the same peptide. Note that 50% of detectable activity is eluting at fraction 13. Since the hydrophobic myristoyl residue is located at the N-terminus and the iodinated Tyr-residue at the C-terminus fraction 13 represents the unaltered full-length peptide.
To determine the peptide stability in the liver 131I labelled HBVpreS/2-48^myr (D) was extracted from one liver lobe 24 h post subcutaneous injection. To that aim, 1 ml water per gram frozen liver tissue was added to the sample. After homogenization an equal volume of acetonitrile was added and the homogenization was repeated. After centrifugation (2×10 min at 4000×g) this solution was separated on a reverse phase HPLC column and the radioactivity of each fraction was quantified in a gamma counter.

[4] = tested on: primary human hepatocytes (PHH); test: Immunofluorescence binding to primary human hepatocytes; assay type: cell-based; settings: 400 nM peptide for 4 hours, confocal immunofluorescence
Procedure: Primary human hepatocytes (PHH) were incubated with or without 400 nM peptide for 4 hours:
(§1) Primary hepatocytes grown on cover slips were incubated with the respective peptide at 200 nM in serum-free cell culture medium. After 1 hour incubation at 37° C. cells were fixed and nuclei were stained with DAPI. Fluorescence microscopy was performed on a Spinning Disk Confocal Microscope at 600× magnification.

[5] = tested on: HepaRG cells; test: Immunofluorescence binding to HepaRG cells; assay type: cell-based; settings: 400 nM peptide, 4 hours at 37° C.
Procedure: (§2) Cells were incubated with or without 400 nM peptide for 4 hours at 37° C.:
HepaRG cells were grown in William's E medium supplemented with 10% fetal calf serum (FCS), 100 units/ml penicillin, 100 μg/ml streptomycin, 5 μg/ml insulin and 5×10^−5 M hydrocortisone hemisuccinate (10). Cells were passaged 1/5 every two weeks by trypsination. Two to three weeks before infection cell differentiation was induced by adding 2% DMSO into the maintenance medium. The medium was exchanged every 2-3 days.
as §1

[6] = tested on: Primary mouse hepatocytes (PMH); test: Immunofluorescence binding to primary mouse hepatocytes; assay type: cell-based; settings: 400 nM peptide, 4 hours at 37° C.; for Binding to primary mouse hepatocytes (PMH): differentiated PMH
Procedure: as §2
[…] After 1 hour incubation at 37° C. cells were fixed and nuclei were stained with DAPI. Fluorescence microscopy was performed on a Spinning Disk Confocal Microscope at 600× magnification.

[7] = tested on: Primary mouse hepatocytes (PMH); test: FACS analysis of binding to primary mouse hepatocytes; assay type: cell-based; settings: 200 nM, 30 minutes at room temperature
Procedure: Cryo-preserved primary hepatocytes were thawed and washed with serum-free medium. In each reaction 4×10^5 cells/ml were incubated with the respective peptide at a concentration of 200 nM in serum-free cell culture medium. The staining was performed for 30 minutes at room temperature with frequent mixing. Subsequently, cells were washed extensively and resuspended in PBS to proceed with the FACS analysis.

HBVpreS/2-48^myr(D): SEQ ID NO. 23, genotype D residues 2-48, N-terminus myristoylated
organ-specific peptide accumulation (biodistribution) [1]: most of the peptide accumulates in the liver | organ-specific peptide accumulation (biodistribution) [2]: most of the peptide accumulates in the liver | detectable activity eluting at fraction 13 (unaltered full-length peptide) in liver extract [3]: 50%

wt myr(−)-FITC: HBVpreS/2-48(C)-FITC without myristoylation [reference compound]
Binding to primary human hepatocytes (PHH) [4]: only in B binding of the peptide to the cells can be seen | Binding to differentiated HepaRG cells [5]: Only wt myr-FITC binds to the cells | Binding to primary mouse hepatocytes (PMH) [6]: Only wt myr-FITC binds to the cells

wt myr-FITC: HBVpreS/2-48 myr (C) with lysine at the C-terminus [SEQ ID NO. 39], labelled with FITC
Binding to primary human hepatocytes (PHH) [4]: only in B binding of the peptide to the cells can be seen | Binding to differentiated HepaRG cells [5]: Only wt myr-FITC binds to the cells; also recorded: binds only to differentiated cells | Binding to undifferentiated HepaRG cells ([5]; undifferentiated cells): binds only to differentiated cells | Binding to de-differentiated primary mouse hepatocytes (PMH) ([6]; de-differentiated PMH): binds only to differentiated cells | Binding to primary mouse hepatocytes (PMH) [6]: Only wt myr-FITC binds to the cells; also recorded: binds only to differentiated cells | Binding to primary mouse hepatocytes (PMH), FACS analysis [7]: Only wt myr-FITC binds to the cells

mut myr-FITC: HBVpreS/2-48 myr (C)-FITC with D-Leu and D-Phe at positions L11 and F13 [reference compound]
Binding to primary human hepatocytes (PHH) [4]: only in B binding of the peptide to the cells can be seen | Binding to differentiated HepaRG cells [5]: Only wt myr-FITC binds to the cells | Binding to primary mouse hepatocytes (PMH) [6]: Only wt myr-FITC binds to the cells | Binding to primary mouse hepatocytes (PMH), FACS analysis [7]: Only wt myr-FITC binds to the cells
